Numbering of substitutions follows the chain as printed. Numbers in names are those of the source.
B1: TRIM21 RING E13A (protein)
chain: MASAARLTMMWEAVTCPICLDPFVEPVSIECGHSFCQECISQVGKGGGSVCPVCRQRFLLKNLRPNRQLANMVNNLKEISQEARE
B2: TRIM21 RING E13R (protein)
chain: B1 chain with A13R

Biological target: ubiquitin, P0CG48
Sequence (P0CG48 whole entry, looked up): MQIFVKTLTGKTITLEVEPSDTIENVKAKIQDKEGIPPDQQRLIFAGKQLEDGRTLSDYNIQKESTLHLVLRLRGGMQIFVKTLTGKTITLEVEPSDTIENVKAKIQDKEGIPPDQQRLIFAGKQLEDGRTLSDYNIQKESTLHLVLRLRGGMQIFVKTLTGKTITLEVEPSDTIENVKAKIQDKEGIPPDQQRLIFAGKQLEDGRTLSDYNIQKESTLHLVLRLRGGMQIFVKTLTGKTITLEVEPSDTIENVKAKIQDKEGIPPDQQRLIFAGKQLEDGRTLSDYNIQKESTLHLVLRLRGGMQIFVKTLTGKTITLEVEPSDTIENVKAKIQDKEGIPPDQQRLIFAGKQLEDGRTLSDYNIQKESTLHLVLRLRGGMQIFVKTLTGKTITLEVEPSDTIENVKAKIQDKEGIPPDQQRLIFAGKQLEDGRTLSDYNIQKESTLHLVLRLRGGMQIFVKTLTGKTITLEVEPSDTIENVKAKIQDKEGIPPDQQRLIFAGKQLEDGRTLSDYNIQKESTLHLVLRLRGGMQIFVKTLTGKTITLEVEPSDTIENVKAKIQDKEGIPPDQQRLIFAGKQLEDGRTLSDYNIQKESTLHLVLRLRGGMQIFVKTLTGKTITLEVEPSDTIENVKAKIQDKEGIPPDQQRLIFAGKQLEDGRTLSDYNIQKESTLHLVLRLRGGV

| Protein | Ube2W-mediated TRIM21 RING monoubiquitination time-course |
| --- | --- |
| B1 | TRIM21 mutants E13A and E13R both showed a slight reduction in activity |
| B2 | TRIM21 mutants E13A and E13R both showed a slight reduction in activity |

Reference: patent publication US20250376495
